Reference: patent US20070231812A1, “Method of Screening Antidiabetic Agents” (priority 2004, published 2007)

B1: SOCS-2: mouse SOCS-2 (amino acid sequence of SEQ ID NO: 2) overexpressed in pancreatic β cells via adenovirus vector pAdTrack-CMV (protein, listed as Mus sp.)
chain: MTLRCLEPSGNGADRTRSQWGTAGLPEEQSPEAARLAKALRELSQTGWYWGSMTVNEAKEKLKEAPEGTFLIRDSSHSDYLLTISVKTSAGPTNLRIEYQDGKFRLDSIICVKSKLKQFDSVVHLIDYYVQMCKDKRTGPEAPRNGTVHLYLTKPLYTSAPTLQHFCRLAINKCTGTIWGLPLPTRLKDYLEEYKFQV

Columns and labels:
SOCS-2 promoter = SOCS-2 promoter reporter (luciferase) activity in HepG2 cells with or without IL-6; assay type: cell-based, human; conditions: IL-6 stimulation 3 hours, standardized by β-galactosidase activity, relative to absence of IL-6
Description: On the basis of the registered sequence (NCBI Reference Sequences No. NM_003877) of human SOCS-2, a genomic sequence which accords with the sequence was specified as the sequence of NCBI GenBank accession No. NC—000012.5—93000001—94000000. To obtain a DNA consisting of nucleotides 893,596-898,678 of NC—000012.5—93000001—94000000, which was considered the promoter region of human SOCS-2, i.e., a DNA consisting of the nucleotide sequence of SEQ ID NO: 3, the first PCR was carried out using synthetic oligo DNAs [5′-gtg[…]-3′ (SEQ ID NO: 8) and 5′-gtg[…]-3′ (SEQ ID NO: 9)] having restriction enzyme sites […] and NheI, respectively, and an LA Taq (TAKARA; catalogue code RR002A). The resulting PCR product was diluted to 1/50 with sterile water, and the second PCR was carried out using the diluted solution as a template, synthetic oligo DNAs [5′-gtg[…]-3′ (SEQ ID NO: 10) and 5′-gtg[…]-3′ (SEQ ID NO: 11)], and an LA Taq (TAKARA; catalogue code RR002A). […]
HepG2 cells (ATCC accession No. HB-8065) was transformed with the SOCS-2 reporter vector or the control vector prepared in Example 3(1) to measure the activity when stimulated with or without IL-6. […] The cells were lysed with a cell lysis solution LCβ (Toyo Ink MFG), and a luciferase activity was measured using a PicaGene coloring kit (Toyo Ink MFG; 309-04321). […]

endogenous SOCS-2 gene = experiment: Endogenous SOCS-2 mRNA in HepG2 cells by quantitative PCR with or without IL-6; assay type: cell-based, human; conditions: IL-6 10 ng/mL, 3 hours, compensated with G3PDH, relative to absence of IL-6
Description: First, an endogenous SOCS-2 promoter activity was measured. Since a stimulation capable of promoting the SOCS-2 promoter activity in pancreatic β cells was unknown, an amount of SOCS-2 mRNA was measured when stimulated by IL-6, which was a typical stimulation capable of increasing a transcriptional activity of STAT1, STAT3, or STAT5. It is considered that STAT1, STAT3, and STAT5 transduce an external signal, and finally promote a SOCS-2 transcriptional activity. More particularly, human HepG2 cells in which the IL-6 reactivity was confirmed were used to measure and compare amounts of endogenous SOCS-2 mRNA expressed when stimulated with or without IL-6 stimulation. The amount of gene expressed was compensated by measuring an amount of a G3PDH (Glyceraldehyde 3-phosphate dehydrogenase) gene expressed, at the same time. […] In this measuring system, an amount of fluorescence from a SYBR Green I dye incorporated into double-stranded DNAs amplified by PCR was detected and quantified in real time, to determine the amount of gene expressed. […]
The amount of […] SOCS-2 gene expressed was compensated with that of the G3PDH gene expressed in accordance with the following equation: C=A/B [C: Compensated amount of SOCS-2 expressed, A: Measured value of the SOCS-2 gene expressed, and B: Measured value of the G3PDH gene expressed]

[1] = system: rat pancreatic Langerhans islets; experiment: Insulin secreted from rat pancreatic Langerhans islets overexpressing SOCS-2; assay type: cell-based; conditions: 90 minutes, adenovirus infected rat islets
Description: After 4 male rats (6-8 weeks old, 350 to 450 g in weight) were anesthetized, the abdomen was incised and exposed. A bile duct of the liver was ligated, and blood was drawn from the heart. From the bile duct, 5 mL of HBSS-HEPES (136.8 mmol/L NaCl, 5.3 mmol/L KCl, 0.8 mmol/L MgSO4, 1 mmol/L Na2HPO4, 0.44 mmol/L KH2PO4, 4.1 mmol/L NaHCO3, 10 mmol/L Hepes, 1 mmol/L CaCl2, and 2 mmol/L glucose, pH 7.2) supplemented with 0.02% Liberase (Roche Diagnostic) was injected using a winged needle. The pancreas was removed and transferred to a tube containing 5 mL of HBSS-HEPE, and incubated at 37° C. for 20 minutes. After the incubation, the whole was stirred, and ice-cold HBSS-HEPES-0.35% BSA was added. The mixture was centrifuged at 1500 rpm for 1 minute to remove the supernatant. To the precipitated tissues, 10 mL of HBSS-HEPES-0.35% BSA was added, and the tissues were suspended using a needle. This washing step was repeated twice. After the centrifugation, the supernatant was removed, and 10 mL of a 8.3% Ficoll-Conray solution was added and suspended. Further, 10 mL of HBSS-HEPES-0.35% BSA was added, and the whole was centrifuged for 20 minutes. After the centrifugation, pancreatic Langerhans islets between two liquid layers were collected. To the collected pancreatic Langerhans islets, 10 mL of HBSS-HEPES-0.35% BSA was added, and the whole was centrifuged. […]

MIN6B1 cells = experiment: Insulin secreted from MIN6B1 cells overexpressing SOCS-2; assay type: cell-based, mouse; conditions: 20 minutes, adenovirus infected MIN6B1 cells
Description: Mouse pancreatic β cell line MIN6B1 cells [Endocrinol. (2003) 144,. 1368-1379] were infected with SOCS-2/pAdTrack-CMV or pAdTrack-CMV (control) to prepare pancreatic β cells overexpressing SOCS-2, as described below.
MIN6B1 cells (2×10^5 cells) were seeded on a 24-well plate, and cultured for 24 hours in 0.5 mL of a minimum essential medium DMEM (GIBCO) containing 10% fetal bovine serum (SIGMA). SOCS-2/pAdTrack-CMV or pAdTrack-CMV (control) was added to each medium at a concentration of 4×10^8 pfu/well.
After 14 hours from the adenovirus infection of pancreatic β cells, each medium was aspirated, and cells were washed three times with KRB-HEPES (140 mmol/L NaCl, 3.6 mmol/L KCl, 0.5 mmol/L NaH2PO4, 0.5 mmol/L MgSO4, 1.5 mmol/L-CaCl2, 10 mmol/L Hepes, 2 mmol/L NaHCO3, and 0.1% BSA, pH 7.4), and incubated in 2.8 mmol/L glucose-containing KRB-HEPES (1 mL) at 37° C. for 1 hour in the presence of 5% CO2.
After the buffer was aspirated, 2.8 mmol/L or 16.8 mmol/L glucose-containing KRB-HEPES was added. The cells were further incubated at 37° C. for 20 minutes in the presence of 5% CO2, and an amount of insulin secreted into the supernatant was measured.
A commercially available insulin radioimmunoassay kit (Rat insulin [125I] RIA system; Amersham Bioscience) was used for the measurement of the amount of insulin secreted.

[2] = 16.8 mmol/L glucose, p<0.01 vs control

Molecule	SOCS-2 reporter activity, factor of increase (SOCS-2 promoter)	expression of the endogenous SOCS-2 gene, factor of increase (endogenous SOCS-2 gene)	insulin secretion versus control ([1]; 2.8 mmol/L glucose)	insulin secretion versus control [1, 2]	insulin secretion versus control (MIN6B1 cells; 2.8 mmol/L glucose)	insulin secretion versus control (MIN6B1 cells; [2])
IL-6: typical stimulation capable of increasing a transcriptional activity of STAT1, STAT3, or STAT5 (R&D Systems)	approximately 2	approximately 2				
B1			no difference was observed	inhibited the activity of promoting insulin secretion	no difference was observed	inhibited the activity of promoting insulin secretion
